In article PMC2839002:

Target: YFP-SmB′ (UniProt P14678)
Test: co-IP

coilin, endogenous in HeLa (from UniProt P38432 1-576) (natural protein)
fold coilin recovered with anti-GFP relative to NMS: 4.5 fold
